Measured values published in PMC11791991 (2024).
Ends that are not written are not given here.

Target: T1, LZ-Y
T1 chain: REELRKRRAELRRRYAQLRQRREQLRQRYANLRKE
Test: QRET time-resolved luminescence

B1: EuLZ (leucine zipper peptide LZ, Eu-chelate labeled) (peptide)
chain: KDTLQAETDQLEDEKSALQTEIANLLKEKEKLEFIL
modifications: also: nonadentate Eu(III) chelate label, position not given here
- Kd: 21 nM
